The values below come from US20250186597A1, “TARGETED IMMUNE ACTIVATION WITH IL-18 IMMUNOCYTOKINES” (BRIGHT PEAK THERAPEUTICS AG, priority 2023, published 2025).

Common to all, as to type: cell-based, human
Experiment [1] relates to PD-1 positive (transduced) KG-1 cells. In words: IFN gamma secretion assay in PD-1 transduced KG-1 cells (Example 11). The method, then: (§1) The KG-1 cell line was used to generate a PD-1 expressing cell line and furthermore, to measure IFNγ release upon incubation with IL-18 variants and corresponding IL-18 immunocytokines.
PD-1 expressing cell line generation: Briefly, KG-1 cells were transduced using lentiviral particles carrying the human PD-1 gene (PDCD1 NM_005018; Origene, CAT #: RC210364L3V) at a MOI (Multiplicity of Infection) of 30. Spinfection was performed at 1260 g during 90 min at 37° C. in the presence of 5 μg/ml of Polybrene and 10 mM of HEPES in complete culture media (RPMI, 10% FBS, 1% L-Glutamine). […]
IFNγ release was assessed in PD-1 positive (transduced) KG-1 cells, as well as in the parental PD-1 negative cells. […] The lowest concentration assessed was […]. After incubation, IFNγ release was measured using the LEGENDplex custom human mix and match KIT (Biolegend LEGENDplex™ Human IFN-γ Capture Bead B5, 13X #740942, LEGENDplex™ HU Essential Immune Response Panel Detection Abs, #740931, LEGENDplex™ Buffer Set A #740368). […] Fluorescence measurements were done with a Quanteon Flow Cytometer from Acea Biosciences. For analysis, MFI values (median fluorescence intensity) were exported and plotted against concentrations used. The EC50 values (half maximal effective concentration) were calculated based on a variable slope and four parameter analysis using GraphPad PRISM software version 9.

The subject of experiment [2] is parental PD-1negative NK-92 cells. The experiment is described as follows: IFN gamma secretion assay in parental PD-1 negative NK-92 cells (Example 17). Particulars: IFNγ secretion. How it is done:
(§2) To show selectivity of the anti-PD1-IL18 immunocytokine (IC) for PD-1 positive cells, the NK-92 cell line was used to generate a PD-1 expressing cell line and furthermore, to measure IFN[…] release upon incubation with IL-18 variants and ICs.
(§3) On the day of experiment, parental PD-1negative and PD-1positive transduced cells were harvested and washed with PBS 1× and resuspended in medium (w/o IL-2) containing 1 ng/ml of recombinant human Interleukin-12 (SinoBiologicals, Cat #CT011-H08H). After counting, cells were seeded at 100 000 cells/well in a 384 well culture plate and incubated at 37° C./5% CO2. When indicated, cells were preincubated with anti-PD-1 antibody LZM-009 at 17 uM during 30 min at 37° C. […] The lowest concentration assessed was 0.8 fM.
(§4) After 16-20 h incubation at 37° C./5% CO2, 5 μl of supernatant were carefully transferred to a 384 microwell OptiPlate (Perkin Elmer; Cat #6007270) and Interferon-gamma (IFNγ) levels were measured using the Human IFNγ AlphaLISA Assay Kit (Perkin Elmer, Cat #AL217C). […] AlphaLISA signal was then measured on an Enspire plate reader (Perkin Elmer) using 680 and 615 nm as excitation and emission wavelengths respectively. Half maximal effective concentration (EC50) was calculated based on a variable slope, four parameter analysis using GraphPad PRISM software.

The subject of experiment [3] is PD-1positive transduced NK-92 cells. The experiment is described as follows: IL-18BP mediated inhibition of IFN gamma secretion in PD-1 positive transduced NK-92 cells (Example 18). How it is done:
To characterize the resistance of anti-PD1-IL18 immunocytokines (IC) on PD-1 positive cells, the NK-92 cell line was used to generate a PD-1 expressing cell line and furthermore, to measure the inhibition of IFN[…] release upon incubation with IL-18 variants and ICs in the presence of increasing quantities of human IL-18BP.
On the day of experiment, parental PD-1^negative and PD-1^positive transduced cells were harvested and washed with PBS 1× and resuspended in medium (w/o IL-2) containing 1 ng/ml of recombinant human Interleukin-12 (SinoBiologicals, Cat #CT011-H08H). After counting, cells were seeded at 100 000 cells/well in a 384 well culture plate and incubated at 37° C./5% CO2. When indicated, cells were preincubated with anti-PD-1 antibody LZM-009 at 17 uM during 30 min at 37° C. […]
After 16-20 h incubation at 37° C./5% CO2, 5 μl of supernatant were carefully transferred to a 384 microwell OptiIPlate (Perkin Elmer; Cat #6007270) and Interferon-gamma (IFNγ) levels measured using the Human IFNγ AlphaLISA Assay Kit (Perkin Elmer, Cat #AL217C). […] AlphaLISA signal was then measured on an Enspire plate reader (Perkin Elmer) using 680 and 615 nm as excitation and emission wavelengths respectively. Half maximal inhibitory concentration (IC50) was calculated based on a variable slope, four parameter analysis using GraphPad PRISM software.

Experiment [4] has the same test system. In words: IFN gamma secretion assay in PD-1 positive transduced NK-92 cells (Example 17). How it is done:
as §2, §3, §4

In experiment [5] the test system is parental PD-1 negative KG-1 cells. The experiment is described as follows: IFN gamma secretion assay in parental PD-1 negative KG-1 cells (Example 11). To be noted: IFNγ secretion. The method, then: as §1
IFNγ release was assessed in PD-1 positive (transduced) KG-1 cells, as well as in the parental PD-1 negative cells. 0.5×10^5 cells were seeded into a 96-well U-bottom plate in culture media (RPMI, 10% FBS, 1% L-Glutamine) and stimulated with IL-18 variants/ICs for 20-24 h. The test items were diluted to 100 nM in culture medium, followed by 7 10-fold serial dilutions. The lowest concentration assessed was […]. After incubation, IFNγ release was measured using the LEGENDplex custom human mix and match KIT (Biolegend LEGENDplex™ Human IFN-γ Capture Bead B5, 13X #740942, LEGENDplex™ HU Essential Immune Response Panel Detection Abs, #740931, LEGENDplex™ Buffer Set A #740368). To this end, cell culture supernatant was collected and diluted 1:1 with Assay Buffer. Fluorescence measurements were done with a Quanteon Flow Cytometer from Acea Biosciences. For analysis, MFI values (median fluorescence intensity) were exported and plotted against concentrations used. The EC50 values (half maximal effective concentration) were calculated based on a variable slope and four parameter analysis using GraphPad PRISM software version 9.

The EC50 is the midpoint of the concentration-response curve. As a reminder, the IC50 is the concentration that inhibits the measured activity by half. Lower therefore signals higher potency.

B1: SEQ ID NO: 30: IL-18 polypeptide: E6K, V11I, C38A, K53A, T63A, C76A, C127A (protein)
chain: YFGKLKSKLSIIRNLNDQVLFIDQGNRPLFEDMTDSDARDNAPRTIFIISMYADSQPRGMAVAISVKCEKISTLSAENKIISFKEMNPPDNIKDTKSDIIFFQRSVPGHDNKMQFESSSYEGYFLAAEKERDLFKLILKKEDELGDRSIMFTVQNED
For B1, the concentration giving a half-maximal response (EC50) in experiment [1] (IFNγ secretion, PD-1 transduced KG-1) worked out at 8 pM; in experiment [2], 2.4 pM; in experiment [4] (IFNγ secretion), 2.8 pM; in experiment [5], 12 pM. In addition, the “PD-1^neg/PD-1^pos EC50 ratio” value in experiment [1] (KG-1 cells) came out at 1.336; in experiment [4] (NK-92 cells) it was 0.9. Besides, it took 80300 pM to reach half-maximal inhibition in experiment [3] (IL-18BP-mediated inhibition of IFNγ secretion, IL-18 analyte 1 nM) (IC50). Besides, the “PD-1^pos/PD-1^neg IC50 ratio” value in experiment [3] (NK-92 cells) is on record as 1.0.
